% Cross-React data for one molecule are collected here from patent US20150079612A1.

Test [1] concerns the target Hemoglobin. In words: competitive ECL 5-FU assay, Bi-61C6 beads and TAG Plus 1-5C-5-FU-BSA, hemoglobin 10 mg/mL in plasma without 5-FU.
The target in test [2] is Hemoglobin. As to the kind of experiment: competitive ECL 5-FU assay, Bi-61C6 beads and TAG Plus 1-5C-5-FU-BSA, hemoglobin 10 mg/mL in plasma with 75 ng/mL spiked 5-FU.
The target of test [3] is Hemoglobin. As to the kind of experiment: competitive ECL 5-FU assay, Bi-61C6 beads and TAG Plus 1-5C-5-FU-BSA, hemoglobin 10 mg/mL in plasma with 1000 ng/mL spiked 5-FU.

B1: monoclonal antibody 61C6 (antibody, mouse IgG2b, kappa, V domains shown)
VH: QIQLVQSGPELKKPGETVTISCKASGYTLTNYGMNWVKQAPGKGLKWMGWINTNSGEPTYVEEFKGRFAFSLETSVSTVYLQISDLKHEDTATYFCARWGPHFNAYGWFAYWGQGTLVTVSA
VL: YIQMTQTASSLSASLGDRVTISCRASQDIWNYLNWYQQKPDGTIKLLIYYKSRLHSGVPSRFSGSGSGIDFSLTISNLEQEDFATYFCQQGHTLPWTFGGGSKLEIKR
modifications: biotinylated on primary amines with EZ-Link Sulfo-NHS-LC-Biotin (positions not stated)
Consider B1, for which the figures for the % Cross-React in the test with Hemoglobin [1], in the test with Hemoglobin [2] and in the test with Hemoglobin [3] were 0%, 0% and -0.1%, respectively.
